Results reported in paper PMC6043352 (Journal of molecular biology, 2018).

What was measured:
ubiquitin [1] = target: T1, ubiquitin (UniProt P0CG47 1-76); assay: ITC
ubiquitin [2] = target: T1, ubiquitin; assay: NMR titration

Kd (ubiquitin [1]): ~49 µM
Kd (ubiquitin [2]): ~27 µM
B1: human REV1 (932–1039) (domain or fragment, UniProt Q9UBZ9 932-1039, looked up)
chain: VPSPSQLDQSVLEALPPDLREQVEQVCAVQQAESHGDKKKEPVNGCNTGILPQPVGTVLLQIPEPQESNSDAGINLIALPAFSQVDPEVFAALPAELQRELKAAYDQR
